According to patent publication US7998940B2, “Aptamers to von Willebrand factor and their use as thrombotic disease therapeutics” (Archemix Corp., priority 2004, dated 2011):
Like-named read-outs stand apart in the source and are kept apart here. Oligonucleotides are written 5' to 3', each unit as a sugar letter and its base; * is a phosphorothioate linkage, no mark a phosphodiester; rarer units and linkages stand in square brackets, end groups in braces. Plain capitals give the bases only. r = 2'-OH (RNA); f = 2'-fluoro

Assays:
[1] = target: T1, human vWF A1 domain (SEQ ID NO 5) (Homo sapiens, UniProt P04275, T1381A); test: 3-point dot blot screen, human vWF A1 domain; type: binding; settings: 100 nM human vWF A1 domain
How it was run: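 Values are ratios of aptamer fraction retained on nitrocellulose with 100 nM vWF A1 domain (human or rabbit) versus a no-protein control. Unique clones from rounds 9 and 12 pools were transcribed, desalted and 5'-32P labeled before this three-point dot blot screen.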

[2] = tested on: rabbit vWF A1 domain (SEQ ID NO 6); test: 3-point dot blot screen, rabbit vWF A1 domain; type: binding; settings: 100 nM rabbit vWF A1 domain, ratio of fraction bound with target to without
How it was run: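 Rabbit vWF A1 domain binding was screened by dot blot using three conditions: no target protein, human vWF, and rabbit vWF A1 domain at 100 nM (20 nM in the screen run twice). Radiolabeled aptamer bound to nitrocellulose was quantified, and results are expressed as the ratio of bound fraction with protein to bound fraction without protein.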

[3] = target: T1, human vWF A1 domain (SEQ ID NO 5); test: dot blot KD determination, human vWF A1 domain
[4] = rRfY aptamers, ratio of fraction bound with target to fraction bound without target
[5] = read-out: human A1 KD, rRfY aptamers, 8 point titration of human vWF A1 domain
[6] = DNA SELEX 1 aptamers, ratio of fraction bound with target to without
[7] = read-out: Human A1 KD, DNA SELEX 1 aptamers, competition dot blot, 100 nM protein, cold competitor titration

Sequence of rabbit vWF A1 domain (SEQ ID NO 6) (as listed by the source): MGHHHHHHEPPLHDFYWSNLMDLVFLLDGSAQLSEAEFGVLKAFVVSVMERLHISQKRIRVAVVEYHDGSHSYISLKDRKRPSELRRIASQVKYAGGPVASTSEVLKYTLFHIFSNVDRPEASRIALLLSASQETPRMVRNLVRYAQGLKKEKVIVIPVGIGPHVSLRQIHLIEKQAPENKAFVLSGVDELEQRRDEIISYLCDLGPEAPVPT
T1 sequence (P04275 with tags, fused parts or gaps T1381A): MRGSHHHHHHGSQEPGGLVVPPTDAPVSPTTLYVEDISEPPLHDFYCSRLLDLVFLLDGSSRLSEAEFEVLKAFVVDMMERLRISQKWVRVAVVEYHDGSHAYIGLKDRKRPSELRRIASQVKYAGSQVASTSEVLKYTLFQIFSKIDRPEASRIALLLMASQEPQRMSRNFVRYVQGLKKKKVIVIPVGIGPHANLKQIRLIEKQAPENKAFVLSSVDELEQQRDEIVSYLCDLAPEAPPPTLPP

Molecule | Screen- Human/No Protein [1, 4] | Screen- Rabbit/No Protein ([2]; rRfY aptamers) | Kd [3, 5] [nM] | Screen- Human/No Protein [1, 6] | Screen- Rabbit/No Protein ([2]; DNA SELEX 1 aptamers) | Kd [3, 7] [nM]
AMX201.G9: rRfY aptamer clone (nucleic acid) rGrGrArGfCrGfCrAfCfUfCrArGfCfCrAfCfUrArAfCrGrGfCfUrGrAfUfCfUfCrArGrGrAfCfUrArArAfUrArGfUfCrArAfCrArArGrGrAfUrGfCrGfUfUfUfCrGrAfCfCfUfCfUfCfUrGfCfUrArGfC | 2.06 | 2.11 | 182 | – | – | –
AMX201.H1: rRfY aptamer clone (nucleic acid) rGrGrArGfCrGfCrAfCfUfCrArGfCfCrAfCfUfUfUrAfCrGrGfUrGrArArArGfUfCfUfCfUfCrGrGrGrGfUfUfCfCrGrArGfUfUrAfCrGrGfUrGfCrGfUfUfUfCrGrAfCfCfUfCfUfCfUrGfCfUrArGfC | 2.61 | 2.46 | 189 | – | – | –
AMX198.E11: rRfY aptamer clone (nucleic acid) rGrGrArGfCrGfCrAfCfUfCrArGfCfCrAfCrGrGfUrArAfCrAfUfUrGfUfUfUfCfCrGrGfCrGrAfUfUfCfUfUfUrGrArAfCrGfCfCrGfUfCrGfUrGrGfUfUfUfCrGrAfCfCfUfCfUfCfUrGfCfUrArGfC | 1.03 | 2.37 | 1060 | – | – | –
AMX200.C11: DNA SELEX 1 aptamer clone (nucleic acid, DNA, backbone not given here, DNA SELEX 1 aptamer clone) DNA: CTACCTACGATCTGACTAGCGGAATGAGAGTGCTGATGGATTGCTCAGGTCTGCTGGCTGCTTACTCTCATGTAGTTCC | – | – | – | 6.00 | 3.64 | 26
AMX199.G10: DNA SELEX 1 aptamer clone (nucleic acid, DNA, backbone not given here, DNA SELEX 1 aptamer clone) DNA: CTACCTACGATCTGACTAGCGGAATGAGAATGTTGGTGGATTGCTCAGGTCTGCTGGCTGCTTACTCTCATGTAGTTCC | – | – | – | 4.97 | 2.66 | 22
AMX199.F7: DNA SELEX 1 aptamer clone (nucleic acid, DNA, backbone not given here, DNA SELEX 1 aptamer clone) DNA: CTACCTACGATCTGACTAGCGGAATGAGAGTGCTGGTGGATTGCTCAGGTCTGCTGGCTGCTTACTCTCATGTAGTTCC | – | – | – | 5.47 | 5.00 | 22
AMX198.C10: rRfY aptamer clone (nucleic acid) rGrGrArGfCrGfCrAfCfUfCrArGfCfCrAfCfUrGrGfUfCfCfUfUrArGfCfUrArGfUfUrGfUrAfCfUrArGfCrGrAfCrGfCrGfUfUfCrArGrGfUrGrGfUfUfUfCrGrAfCfCfUfCfUfCfUrGfCfUrArGfC | 1.40 | 3.39 | 555 | – | – | –
AMX198.A10: rRfY aptamer clone (nucleic acid) rGrGrArGfCrGfCrAfCfUfCrArGfCfCrAfCfCrArGfUfUrAfUrGfCfUrGrGfCfUfUfUrGrGfUfCfUfUfUrGrAfCfUrGfUfCfUrGrArGfUrGfUfUfCrGfUfUfUfCrGrAfCfCfUfCfUfCfUrGfCfUrArGfC | 1.26 | 5.74 | 1860 | – | – | –
AMX198.E5: rRfY aptamer clone (nucleic acid) rGrGrArGfCrGfCrAfCfUfCrArGfCfCrAfCfUfUfCrGrAfCfUfUfUfCrAfUrGfUfCfUrGrArArGfUfCfCfCfUrGfCrArGfUrGfCrGrArGrArGrAfCrGfUfUfUfCrGrAfCfCfUfCfUfCfUrGfCfUrArGfC | 1.60 | 1.56 | 172 | – | – | –
AMX198.C6: rRfY aptamer clone (nucleic acid) rGrGrArGfCrGfCrAfCfUfCrArGfCfCrAfCrGrGfUrGrGfUfCrArGfUfCrArGfUrGrAfUrAfUrGrAfUfUrArArGfUfUfCrArGfCfUrGfUrGrGfCfUrGfUfUfUfCrGrAfCfCfUfCfUfCfUrGfCfUrArGfC | 3.03 | 4.62 | 249 | – | – | –
